Measurements from patent US20040259112A1.

Tests used:
[1] = biological target: human vimentin (full length) (human) (UniProt P08670); experiment: quantitative FACS (quantum simply cellular beads) on HL60/AR cells at saturating antibody (40 µg)
[2] = biological target: human vimentin (full length) (human) (UniProt P08670); experiment: quantitative FACS (quantum simply cellular beads) on HL60 cells at saturating antibody (40 µg)
[3] = biological target: human vimentin (full length) (human) (UniProt P08670); experiment: Scatchard analysis, intact cell radioimmunoassay with 125I-labeled antibody on MDA cells
[4] = biological target: human vimentin (full length) (human) (UniProt P08670); experiment: quantitative FACS (quantum simply cellular beads) on MCF-7 cells at saturating antibody (50 µg)
[5] = biological target: human vimentin (full length) (human) (UniProt P08670); experiment: Scatchard analysis, intact cell radioimmunoassay with 125I-labeled antibody on MDA/mito cells; average of 5 determinations
[6] = biological target: human vimentin (full length) (human) (UniProt P08670); experiment: quantitative FACS (quantum simply cellular beads) on MCF-7/AR cells at saturating antibody (50 µg)
[7] = biological target: human vimentin (full length) (human) (UniProt P08670); experiment: FACS, indirect immunofluorescence on HL60 cells with 2.5 µg to 40 µg antibody; isotype control subtracted
[8] = biological target: human vimentin (full length) (human) (UniProt P08670); experiment: cell-based or functional assay

Sequence of human vimentin (full length) (human) (P08670 other isoform, or with tags, fused parts or gaps limits assumed): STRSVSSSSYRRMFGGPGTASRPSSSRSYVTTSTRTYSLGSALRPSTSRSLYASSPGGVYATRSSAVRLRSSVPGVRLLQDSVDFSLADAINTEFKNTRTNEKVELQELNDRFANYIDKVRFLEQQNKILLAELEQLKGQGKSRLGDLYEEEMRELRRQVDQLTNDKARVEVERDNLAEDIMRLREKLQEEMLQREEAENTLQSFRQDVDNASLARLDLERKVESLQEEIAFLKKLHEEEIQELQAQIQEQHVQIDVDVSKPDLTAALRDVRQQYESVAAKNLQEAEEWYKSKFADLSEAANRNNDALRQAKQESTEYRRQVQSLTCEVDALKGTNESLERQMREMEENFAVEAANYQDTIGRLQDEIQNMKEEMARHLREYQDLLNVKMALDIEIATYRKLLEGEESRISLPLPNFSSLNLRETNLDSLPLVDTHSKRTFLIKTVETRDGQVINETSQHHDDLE

## mouse monoclonal anti-vimentin antibody (clone V9, NeoMarker MS-129-P)
[1]
  antibody molecules bound per cell (molecules of vimentin per cell) (molecules per cell): 5050
[2]
  antibody molecules bound per cell (molecules of vimentin per cell) (molecules per cell): 186
[3]
  Kd: 9.3 nM
[4]
  antibody molecules bound per cell (molecules of vimentin per cell) (molecules per cell): 14600
[5]
  Kd: 5.7 nM
[6]
  antibody molecules bound per cell (molecules of vimentin per cell) (molecules per cell): 22000
[7]
  fluorescence intensity (RFI): 0.2 to 0.9 RFI
[8]
  % internalization of 125I-labeled antibody, MCF-7/AR cells in suspension (difference between 4 and 37° C.): 38.2%
  increase in cytotoxicity of 125I-labeled antibody on HL60/AR against HL60 (MTT based assay): 10%
  percent internalization of vimentin, adherent MCF-7/AR cells (difference between 4 and 37° C.): 11.3%
  percent internalization of vimentin, adherent MDA cells (difference between 4 and 37° C.): 25.3%
  percent internalization of vimentin, adherent MDA/AR cells (difference between 4 and 37° C.): 24.8%
  percent internalization of vimentin, adherent MDA/mito cells (difference between 4 and 37° C.): 8.9%
